Paper PMC5512576

Target: BF520 Env 637K (HIV-1)

## PGT151 (antibody)
  maximum percent neutralization, TZM-bl pseudovirus neutralization by PGT151: 59%
